Assay results reported in patent US20030170203A1 (Human Genome Sciences, published 2003).

Experiments:
Experiment in all cases: flow cytometry on transiently transfected cells
[1] = target: T1, TNFR2 on transiently transfected cells (UniProt P20333 23-461, limits assumed)
T1 construct: whole, on cells
T1 sequence (looked up): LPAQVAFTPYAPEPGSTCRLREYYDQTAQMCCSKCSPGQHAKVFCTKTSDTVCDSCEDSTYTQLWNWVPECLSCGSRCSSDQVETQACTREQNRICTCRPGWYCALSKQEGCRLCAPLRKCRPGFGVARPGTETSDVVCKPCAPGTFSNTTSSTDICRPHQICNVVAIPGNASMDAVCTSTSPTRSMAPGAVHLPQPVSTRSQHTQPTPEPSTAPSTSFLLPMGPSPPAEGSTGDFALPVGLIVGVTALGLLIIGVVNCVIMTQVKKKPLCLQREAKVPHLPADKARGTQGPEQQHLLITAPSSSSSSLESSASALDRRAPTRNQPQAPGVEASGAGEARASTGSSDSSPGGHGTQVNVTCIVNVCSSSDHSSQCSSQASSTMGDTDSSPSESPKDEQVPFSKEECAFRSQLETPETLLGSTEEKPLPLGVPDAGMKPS
Description: (§1) One million cells, in 0.1 ml of FACS buffer (PBS, 0.1% BSA, 0.1% NaN₃), were incubated with 0.1-1 microgram of protein or antibody at RT for 15 min. The cells were washed with 3 ml of FACS buffer, reacted with biotinylated primary antibody, and stained with PE-conjugated secondary antibody at RT for 15 min. Cells were then washed again, resuspended in 0.5 microgram/ml of propidium iodide, and live cells were gated and analyzed on a FACScan using the CellQuest software (BD Biosciences).

[2] = target: T2, DcR1 on transiently transfected cells (UniProt O14798 26-236, limits assumed)
T2 construct: whole, on cells
T2 sequence (looked up): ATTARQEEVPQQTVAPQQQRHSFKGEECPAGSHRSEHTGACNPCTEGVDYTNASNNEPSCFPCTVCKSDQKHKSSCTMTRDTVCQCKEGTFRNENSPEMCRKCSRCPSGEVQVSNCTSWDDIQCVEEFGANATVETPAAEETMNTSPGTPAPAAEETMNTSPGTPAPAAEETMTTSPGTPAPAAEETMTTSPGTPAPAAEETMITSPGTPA
Description: as §1

[3] = target: T3, DR4 on transiently transfected cells (UniProt O00220 24-468, limits assumed)
T3 construct: whole, on cells
T3 sequence (looked up): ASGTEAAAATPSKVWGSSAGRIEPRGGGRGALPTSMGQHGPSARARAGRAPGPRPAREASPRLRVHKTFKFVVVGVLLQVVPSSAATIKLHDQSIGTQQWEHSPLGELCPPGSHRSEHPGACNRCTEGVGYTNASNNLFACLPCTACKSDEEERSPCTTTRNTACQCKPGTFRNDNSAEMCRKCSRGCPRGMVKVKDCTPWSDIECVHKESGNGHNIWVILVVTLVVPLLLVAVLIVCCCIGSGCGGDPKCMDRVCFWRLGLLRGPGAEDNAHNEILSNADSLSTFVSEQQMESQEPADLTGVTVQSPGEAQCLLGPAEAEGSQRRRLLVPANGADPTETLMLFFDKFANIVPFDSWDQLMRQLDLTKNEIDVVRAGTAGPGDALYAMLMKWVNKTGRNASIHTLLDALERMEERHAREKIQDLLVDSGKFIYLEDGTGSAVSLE
Description: as §1

[4] = target: T4, BCMA on transiently transfected cells (UniProt Q02223 1-184, limits assumed)
T4 construct: whole, on cells
T4 sequence (looked up): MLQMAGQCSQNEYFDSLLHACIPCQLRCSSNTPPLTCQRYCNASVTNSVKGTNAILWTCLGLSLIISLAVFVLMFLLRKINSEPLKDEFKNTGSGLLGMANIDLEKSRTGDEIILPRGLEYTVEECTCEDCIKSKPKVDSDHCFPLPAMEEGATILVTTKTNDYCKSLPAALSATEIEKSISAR
Description: as §1

[5] = target: T5, AITR on transiently transfected cells (UniProt Q9Y5U5 26-241, limits assumed)
T5 construct: whole, on cells
T5 sequence (looked up): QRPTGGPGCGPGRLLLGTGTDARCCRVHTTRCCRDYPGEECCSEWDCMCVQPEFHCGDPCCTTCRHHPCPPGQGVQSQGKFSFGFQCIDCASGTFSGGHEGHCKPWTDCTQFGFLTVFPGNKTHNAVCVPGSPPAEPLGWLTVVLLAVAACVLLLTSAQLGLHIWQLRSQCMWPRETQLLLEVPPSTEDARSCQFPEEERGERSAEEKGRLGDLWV
Description: as §1

[6] = target: T6, 4-1BB on transiently transfected cells (UniProt Q07011 24-255, limits assumed)
T6 construct: whole, on cells
Description: as §1

[7] = target: T7, RANK on transiently transfected cells (UniProt Q9Y6Q6 30-616, limits assumed)
T7 construct: whole, on cells
T7 sequence (looked up): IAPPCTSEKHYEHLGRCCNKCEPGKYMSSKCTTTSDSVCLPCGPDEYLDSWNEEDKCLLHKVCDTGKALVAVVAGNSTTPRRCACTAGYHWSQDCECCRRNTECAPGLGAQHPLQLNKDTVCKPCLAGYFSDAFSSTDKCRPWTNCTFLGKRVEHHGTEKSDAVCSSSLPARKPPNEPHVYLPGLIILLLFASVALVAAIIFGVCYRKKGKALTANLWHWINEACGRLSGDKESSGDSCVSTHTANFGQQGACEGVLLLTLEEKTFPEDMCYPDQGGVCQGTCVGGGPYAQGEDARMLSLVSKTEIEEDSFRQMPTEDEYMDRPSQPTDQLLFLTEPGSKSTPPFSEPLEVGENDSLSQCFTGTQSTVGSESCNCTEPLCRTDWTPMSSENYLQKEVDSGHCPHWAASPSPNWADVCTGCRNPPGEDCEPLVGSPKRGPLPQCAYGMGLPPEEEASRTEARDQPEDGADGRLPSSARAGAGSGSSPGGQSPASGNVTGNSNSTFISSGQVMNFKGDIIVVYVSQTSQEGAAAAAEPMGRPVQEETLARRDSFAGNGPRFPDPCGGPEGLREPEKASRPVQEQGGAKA
Description: as §1

Measured: binding result

T6 sequence (Q07011 24-255 limits assumed): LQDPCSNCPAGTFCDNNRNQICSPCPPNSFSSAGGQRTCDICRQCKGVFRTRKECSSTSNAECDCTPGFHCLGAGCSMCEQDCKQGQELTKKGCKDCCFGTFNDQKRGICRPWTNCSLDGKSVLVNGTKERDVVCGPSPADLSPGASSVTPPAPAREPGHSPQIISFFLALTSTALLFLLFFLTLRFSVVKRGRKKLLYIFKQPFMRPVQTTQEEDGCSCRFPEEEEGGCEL

B1: FLAG-tagged soluble form of TNF-gamma-beta (aa 72-251) (ligand, human, UniProt O95150 72-251, looked up)
chain: LKGQEFAPSHQQVYAPLRADGDKPRAHLTVVRQTPTQHFKNQFPALHWEHELGLAFTKNRMNYTNKFLLIPESGDYFIYSQVTFRGMTSECSEIRQAGRPNKPDSITVVITKVTDSYPEPTQLLMGTKSVCEVGSNWFQPIYLGAMFSLQEGDKLMVNVSDISLVDYTKEDKTFFGAFLL
notes: also called FLAG-TL1β; FLAG-TNF-gamma-beta; not shown: FLAG tag of vector pFLAGCMV1
no binding: all assays above
